According to the supplement of paper PMC7877785:
± gives the uncertainty stated by the source.

Experiment: self-splicing fitness, log relative to wild type (ln ratio); higher = more splicing; Tetrahymena group I intron in knt gene, E. coli kanamycin selection, DiMSum; sequences stand for … in CUCUCU…GGAGGGAAAAGUUAUCAGGCAUGCACCUGGUAGCUAGUCUUUAAACCAAUAGAUUGCAUCGGUUUAAAAGGCAAGACCGUCAAAUUGCGGGAAAGGGGUCAACAGCCGUUCAGUACCAAGUCUCAGGGGAAACUUUGAGAUGGCCUUGCAAAGGGUAUGGUAAUAAGCUGACGGACAUGGUCCUAACCACGCAGCCAAGUCCUAAGUCAACAGAUCUUCUGUUGAUAUGGAUGCAGUUCACAGACUAAAUGUCGGUCGGGGAAGAUGUAUUCUUCUCAUAAGAUAUAGUCGGACCUCUCCUUAAUGGGAGCUAGCGGAUGAAGUGAUGCAACACUGGAGCCGCUGGGAACUAAUUUGUAUGCGAAAGUAUAUUGAUUAGUUUUGGAGUACUCGUGGUCG
In short: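 Pooled colonies went to amplicon sequencing on an Illumina HiSeq 2500 after six replicate transformations. The plates were LB agar with 100 μg/mL carbenicillin, 50 μM IPTG and 0.2% rhamnose, with or without 25 μg/mL kanamycin, incubated overnight at 37°C or 30°C. The E. coli BL21(DE3) library had all eight P1ex-region intron nucleotides randomised, the intron placed in the knt kanamycin-resistance gene on pET-22b(+). DiMSum fitness is the error-weighted combination of replicate fold changes, kanamycin against none, normalised to wild type.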

Sequence | self-splicing fitness (ln) (30 °C) | self-splicing fitness (ln) (37 °C)
UAAGAGCAAUAUUACGUGCU | -4.59 ± 0.31 | -2.09 ± 0.27
GCAUAGCAAUAUUACGCUAU | -4.09 ± 0.28 | -1.97 ± 0.25
ACUAAGCAAUAUUACGUACG | -1.76 ± 0.12 | -0.814 ± 0.16
AAAGAGCAAUAUUACGCGCG | -2.69 ± 0.17 | -1.65 ± 0.17
UCUCAGCAAUAUUACGGCAA | -2.86 ± 0.25 | -2.44 ± 0.17
GUUCAGCAAUAUUACGGGUC | -1.11 ± 0.11 | -1.35 ± 0.12
AGUUAGCAAUAUUACGAGGU | -3.43 ± 0.16 | -1.55 ± 0.17
GGCCAGCAAUAUUACGUAUC | -0.633 ± 0.069 | -0.494 ± 0.081
GGUAAGCAAUAUUACGAUAU | -0.847 ± 0.15 | 0.242 ± 0.2
GGCAAGCAAUAUUACGAGGU | -2.6 ± 0.24 | -1.27 ± 0.21
CGAGAGCAAUAUUACGCUAA | -2.68 ± 0.33 | 
UGUUAGCAAUAUUACGGUAU | -2.59 ± 0.4 | -1.95 ± 0.28
AGUUAGCAAUAUUACGGAGA | -1.99 ± 0.27 | -2.86 ± 0.48
UAGCAGCAAUAUUACGUCAG | -0.628 ± 0.1 | -1.13 ± 0.12
UGAAAGCAAUAUUACGCGAC | -2.33 ± 0.42 | -2.08 ± 0.38
AAGUAGCAAUAUUACGCGCA | -0.196 ± 0.11 | 0.0802 ± 0.13
AAGAAGCAAUAUUACGUAUA | -2.18 ± 0.14 | -1.17 ± 0.15
GAUGAGCAAUAUUACGCGUU | -4.44 ± 0.28 | -3.27 ± 0.21
UACGAGCAAUAUUACGUCUG | -1.51 ± 0.1 | -1.34 ± 0.11
GAUGAGCAAUAUUACGUUCC | -3.45 ± 0.49 | -2.23 ± 0.42

Sequence | self-splicing fitness (ln) (30 °C) | self-splicing fitness (ln) (37 °C)
UAGAAGCAAUAUUACGGCUC | -2.6 ± 0.3 | -0.946 ± 0.3
AGUUAGCAAUAUUACGUGUG | -3.18 ± 0.15 | -1.8 ± 0.13
AAACAGCAAUAUUACGUGGU | -4.06 ± 0.14 | -2.31 ± 0.15
UGAUAGCAAUAUUACGUUAA | -2.02 ± 0.21 | -2.15 ± 0.26
UCUCAGCAAUAUUACGAAGA | -1.98 ± 0.15 | -1.21 ± 0.15
ACAGAGCAAUAUUACGGUCC | -2.18 ± 0.14 | -2.05 ± 0.39
ACCUAGCAAUAUUACGGAAA | -1.79 ± 0.16 | -1.51 ± 0.12
UUGCAGCAAUAUUACGGCGA | -1.53 ± 0.12 | -0.929 ± 0.14
UCUCAGCAAUAUUACGCUGC | -3.83 ± 0.21 | -2.06 ± 0.17
AGAUAGCAAUAUUACGAACG | -1.12 ± 0.12 | -0.323 ± 0.13
GGCUAGCAAUAUUACGAUUC | -0.162 ± 0.098 | -0.0286 ± 0.13
AUUAAGCAAUAUUACGACAA | -0.618 ± 0.096 | -0.264 ± 0.11
GUACAGCAAUAUUACGGCAA | -1.59 ± 0.15 | -1.32 ± 0.12
GCGGAGCAAUAUUACGAAUC | -2.17 ± 0.44 | 
UGCUAGCAAUAUUACGGUUG | -0.971 ± 0.06 | -0.318 ± 0.082
UUAGAGCAAUAUUACGACCC | -2.63 ± 0.49 | -1.74 ± 0.49
CAUUAGCAAUAUUACGCUUU | -3.35 ± 0.23 | -1.06 ± 0.16
UCUUAGCAAUAUUACGUAGU | -2.27 ± 0.13 | -1.35 ± 0.14
AUGAAGCAAUAUUACGACCG | -0.584 ± 0.24 | -0.447 ± 0.27
AAAGAGCAAUAUUACGUUUC | -3.41 ± 0.18 | -2.55 ± 0.24

Sequence | self-splicing fitness (ln) (30 °C) | self-splicing fitness (ln) (37 °C)
AGGUAGCAAUAUUACGCCGC | -3.58 ± 0.053 | -2.77 ± 0.067
GGACAGCAAUAUUACGAAGC | -0.729 ± 0.079 | 0.158 ± 0.097
AUCGAGCAAUAUUACGAAGA | -1.74 ± 0.44 | -1.65 ± 0.38
GCGCAGCAAUAUUACGCCUU | -2.92 ± 0.23 | 0.19 ± 0.14
UCAAAGCAAUAUUACGCUCA | -0.864 ± 0.15 | -0.428 ± 0.19
AAUAAGCAAUAUUACGAGUU | -1.32 ± 0.087 | -1.1 ± 0.1
UACUAGCAAUAUUACGGAAU | -4.58 ± 0.39 | -2.95 ± 0.23
GUCCAGCAAUAUUACGAUGC | -0.013 ± 0.081 | 0.389 ± 0.1
UUAAAGCAAUAUUACGCUAC | -3.55 ± 0.26 | -1.91 ± 0.2
GUUAAGCAAUAUUACGGUGU | -1.58 ± 0.11 | -0.8 ± 0.12
UUACAGCAAUAUUACGUAAG | -0.248 ± 0.068 | -0.257 ± 0.097
GUAGAGCAAUAUUACGAGUA | -3.5 ± 0.28 | -1.69 ± 0.29
GUGCAGCAAUAUUACGCACG | -2.88 ± 0.38 | -2.85 ± 0.45
UCACAGCAAUAUUACGACGU | -3.44 ± 0.16 | -3.53 ± 0.26
UCCUAGCAAUAUUACGGAAC |  | -2.69 ± 0.24
GUAAAGCAAUAUUACGGGGG | -3.31 ± 0.18 | -2.87 ± 0.31
GGAUAGCAAUAUUACGGUCU | -3.86 ± 0.4 | -1.99 ± 0.18
GAUAAGCAAUAUUACGUCUA | -1.18 ± 0.075 | -0.275 ± 0.085
CGGCAGCAAUAUUACGUCCU | 0.101 ± 0.067 | 0.44 ± 0.092
UCCGAGCAAUAUUACGUAGG | -2.69 ± 0.16 | -2 ± 0.25
